A value given as a limit tells only on which side of the number the result lay.

In the assay the target is human thrombin (human) (UniProt P00734). The assay is described as follows: cell-based or functional assay.

Consider “recombinant DES.N135A ATIII (from UniProt P01008 33-464)”, for which the thrombin inhibition (residual thrombin activity by chromogenic assay); 1 µM dose, wall shear rate 2,000 sec^-1 is over 85%.
